Values quoted from earlier work in paper PMC12193198.
pKd: −log10 of the molar value.

Molecular target: transferrin receptor (TfR) (Homo sapiens) (UniProt P02786)
Sequence (P02786 89-760): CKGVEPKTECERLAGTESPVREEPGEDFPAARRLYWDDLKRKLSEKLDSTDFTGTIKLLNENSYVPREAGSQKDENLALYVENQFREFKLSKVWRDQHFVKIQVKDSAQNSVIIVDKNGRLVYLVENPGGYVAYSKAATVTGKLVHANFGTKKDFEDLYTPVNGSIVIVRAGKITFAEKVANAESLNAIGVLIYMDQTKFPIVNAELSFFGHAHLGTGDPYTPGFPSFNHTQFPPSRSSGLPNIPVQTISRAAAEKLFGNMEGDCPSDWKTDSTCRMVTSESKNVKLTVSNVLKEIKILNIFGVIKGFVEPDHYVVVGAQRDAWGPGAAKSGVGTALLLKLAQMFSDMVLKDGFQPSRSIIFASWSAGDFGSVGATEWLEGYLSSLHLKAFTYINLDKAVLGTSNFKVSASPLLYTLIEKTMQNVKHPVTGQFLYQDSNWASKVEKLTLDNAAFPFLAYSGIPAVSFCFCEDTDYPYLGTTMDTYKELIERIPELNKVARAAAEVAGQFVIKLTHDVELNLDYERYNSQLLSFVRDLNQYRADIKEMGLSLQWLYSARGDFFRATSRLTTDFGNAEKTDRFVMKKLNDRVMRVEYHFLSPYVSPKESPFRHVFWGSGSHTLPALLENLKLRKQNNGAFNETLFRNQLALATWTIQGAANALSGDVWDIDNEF

In the case of T7 peptide, the pKd is listed as 8.00.
